Assay results taken from PMC12903857 (Journal of the American Chemical Society, 2026).
Values belong to the binder of their own block, whether it stands above or below them. Non-standard residues stand in square brackets, D forms with d. No end group written: not given here. pS = N[C@@H](COP(=O)(O)O)C(=O)O

Columns and labels:
[1] = molecular target: T1, C-RAF-NanoLuciferase (Nluc) (UniProt P04049 1-648); assay: FRET or BRET; NanoBRET in HEK293T cells: RAF tagged with NanoLuciferase, 14-3-3σ with HaloTag/fluorescent HaloTag ligand; dose responses of compounds against DMSO; details: partners not purified
T1 construct: C-RAF, full-length RAF client of the cell assays; source: HEK293T, transfected, in cells

A-RAF (NanoBRET fusion) = molecular target: T2, A-RAF (NanoBRET fusion) (UniProt P10398 1-606); assay: as above; details: partners not purified
T2 construct: A-RAF, full-length RAF client of the cell assays; Used in the 14-3-3σ/A-RAF and the A-RAF/C-RAF NanoBRET assays; the fusion partner may differ between them; The cell line is told for the first NanoBRET assays only; source: HEK293T, transfected, in cells; not shown: NanoLuciferase or HaloTag (from the NanoBRET method)

B-RAF (NanoBRET fusion) = molecular target: T3, B-RAF (NanoBRET fusion) (UniProt P15056 1-766); assay: as above; details: partners not purified
T3 construct: B-RAF, full-length RAF client of the cell assays; Used in the 14-3-3σ/B-RAF and the B-RAF/C-RAF NanoBRET assays; the fusion partner may differ between them; The cell line is told for the first NanoBRET assays only; source: HEK293T, transfected, in cells; not shown: NanoLuciferase or HaloTag (from the NanoBRET method)

14-3-3σ = molecular target: T4, 14-3-3σ (UniProt P31947 1-248); assay: fluorescence polarisation; fluorescence anisotropy protein titration: 14-3-3σ titrated into 10 nM labeled peptide in the presence of DMSO; apparent; details: both partners purified
T4 construct: 14-3-3σ (sigma isoform of 14-3-3, SFN), the protein titrated in the fluorescence anisotropy assays; With the covalent compounds of the FA assays C38 becomes modified in the sample; also called sigma isoform
T4 sequence (looked up): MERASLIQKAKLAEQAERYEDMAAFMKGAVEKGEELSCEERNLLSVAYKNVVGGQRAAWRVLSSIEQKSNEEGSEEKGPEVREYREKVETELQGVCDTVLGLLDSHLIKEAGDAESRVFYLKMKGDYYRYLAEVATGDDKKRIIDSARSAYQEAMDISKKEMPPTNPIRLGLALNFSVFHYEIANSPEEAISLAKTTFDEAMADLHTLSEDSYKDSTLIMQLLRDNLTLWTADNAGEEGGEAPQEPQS

T3 sequence (P15056 whole entry, the tested form may be a part): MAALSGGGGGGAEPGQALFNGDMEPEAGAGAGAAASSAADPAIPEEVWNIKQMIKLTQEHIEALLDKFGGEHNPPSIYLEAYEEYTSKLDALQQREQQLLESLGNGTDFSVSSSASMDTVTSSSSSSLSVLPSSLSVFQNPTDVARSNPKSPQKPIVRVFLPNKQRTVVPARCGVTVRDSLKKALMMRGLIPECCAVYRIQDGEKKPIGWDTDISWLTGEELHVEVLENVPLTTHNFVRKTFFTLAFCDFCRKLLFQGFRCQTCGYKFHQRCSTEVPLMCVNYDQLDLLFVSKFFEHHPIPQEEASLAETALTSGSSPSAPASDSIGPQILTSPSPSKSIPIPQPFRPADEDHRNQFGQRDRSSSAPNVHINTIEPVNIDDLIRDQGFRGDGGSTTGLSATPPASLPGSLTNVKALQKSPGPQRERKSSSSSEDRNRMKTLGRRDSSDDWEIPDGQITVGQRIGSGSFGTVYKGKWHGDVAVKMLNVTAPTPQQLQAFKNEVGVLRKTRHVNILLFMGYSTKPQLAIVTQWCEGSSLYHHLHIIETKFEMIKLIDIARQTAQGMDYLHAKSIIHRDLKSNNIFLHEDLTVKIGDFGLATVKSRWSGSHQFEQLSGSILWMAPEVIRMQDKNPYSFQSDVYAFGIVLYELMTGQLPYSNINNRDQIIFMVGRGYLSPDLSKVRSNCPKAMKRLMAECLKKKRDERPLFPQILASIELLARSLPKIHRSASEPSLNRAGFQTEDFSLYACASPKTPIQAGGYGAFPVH

fold stabilization (BRET signal) with 22 against DMSO [1]: 1.5 fold | fold stabilization (BRET signal) with 23 against DMSO [1]: 1.6 fold | fold stabilization (BRET signal) with 70 against DMSO [1]: 1.3 fold | fold stabilization (BRET signal) with 78 against DMSO [1]: 1.4 fold | fold increase (BRET signal) with 10 μM 22 (A-RAF (NanoBRET fusion)): 1.6 fold | fold increase (BRET signal) with 10 μM 23 (A-RAF (NanoBRET fusion)): 1.7 fold | fold increase (BRET signal) with 22 (B-RAF (NanoBRET fusion)): 1.4 fold | fold increase (BRET signal) with 23 (B-RAF (NanoBRET fusion)): 1.4 fold
B1: 14-3-3σ-Halotag (HT) (natural protein, UniProt P31947 1-248, looked up)
chain: T4 sequence (looked up)
modifications: fluorescent HaloTag ligand on the HaloTag
notes: 14-3-3σ, full length, for NanoBRET; also called full-length 14-3-3σ; source: HEK293T, transfected, in cells

Kd (14-3-3σ): 8.43 µM
Binder: QRST[pS]TPNVH (also: FAM label, site not given here) [FAM-labeled C-RAF259 peptide (10-mer)]
